A word on the Km: it is the substrate concentration at which the rate is half of its maximum. For orientation: kcat means the maximal rate divided by the concentration of active sites. As usually defined, the kcat/Km is the second-order rate constant that governs catalysis at low substrate concentration.

Here are results for 3 proteins from publication PMC10638397, “Engineering sulfonate group donor regeneration systems to boost biosynthesis of sulfated compounds” (Nature Communications, 2023).

Substrate in series [1]: Nc1ncnc2c1ncn2[C@@H]1O[C@H](COP(=O)(O)OS(=O)(=O)O)[C@@H](OP(=O)(O)O)[C@H]1O
The series can be described thus: sulfotransferase kinetics, HPLC-MS. It is filed as biochemical, Rattus norvegicus. The conditions noted are these: Mg2+, pH 7.5, 35 °C (general assay), acceptor not given. From the text:
sulfotransferase kinetics, HPLC-MS on aryl sulfotransferase IV (AST IV)

Substrate in series [2]: Nc1ncnc2c1ncn2[C@@H]1O[C@H](COP(=O)(O)OS(=O)(=O)O)[C@@H](O)[C@H]1O
The series can be described thus: purified protein. The conditions noted are these: Mg2+, pH 7.5, 35 °C (general assay), acceptor not given.

Substrate in series [3]: Nc1ncnc2c1ncn2[C@@H]1O[C@H](COP(=O)(O)OS(=O)(=O)O)[C@@H](OP(=O)(O)O)[C@H]1O
The series can be described thus: sulfotransferase kinetics, HPLC-MS. In kind it is biochemical, Mus musculus. The settings on record: Mg2+, pH 7.5, 35 °C (general assay), acceptor not given.

Substrate in series [4]: Nc1ncnc2c1ncn2[C@@H]1O[C@H](COP(=O)(O)OS(=O)(=O)O)[C@@H](OP(=O)(O)O)[C@H]1O
The experiment in a line: sulfotransferase kinetics, HPLC-MS. It is filed as biochemical, Mycolicibacterium smegmatis. The conditions noted are these: sulfonate acceptor trehalose, Mg2+, pH 7.5, 35 °C (general assay).

B1: aryl sulfotransferase IV (AST IV) (Rattus norvegicus) (protein)
chain: MEFSRPPLVHVKGIPLIKYFAETIGPLQNFTAWPDDLLISTYPKSGTTWMSEILDMIYQGGKLEKCGRAPIYARVPFLEFKCPGVPSGLETLEETPAPRLLKTHLPLSLLPQSLLDQKVKVIYIARNAKDVVVSYYNFYNMAKLHPDPGTWDSFLENFMDGEVSYGSWYQHVKEWWELRHTHPVLYLFYEDIKENPKREIKKILEFLGRSLPEETVDSIVHHTSFKKMKENCMTNYTTIPTEIMDHNVSPFMRKGTTGDWKNTFTVAQNERFDAHYAKTMTDCDFKFRCEL
notes: recombinant in E. coli; N-terminal GST fusion printed for the whole-cell work
Take B1: in series [1], the Km came out at 1430 ± 172 µM, the kcat worked out at 0.0131 ± 0.000614 s⁻¹ and the kcat/Km was found to be 9.19 M⁻¹ s⁻¹. Moreover, in series [2], the Km was found to be 2450 ± 500 µM, the kcat amounted to 0.00688 s⁻¹ and the kcat/Km is 2.81 M⁻¹ s⁻¹.

B2: estrogen sulfotransferase (EST) (Mus musculus) (protein)
chain: METSMPEYYEVFGEFRGVLMDKRFTKYWEDVEMFLARPDDLVIATYPKSGTTWISEVVYMIYKEGDVEKCKEDAIFNRIPYLECRNEDLINGIKQLKEKESPRIVKTHLPPKLLPASFWEKNCKMIYLCRNAKDVAVSYYYFLLMITSYPNPKSFSEFVEKFMQGQVPYGSWYDHVKAWWEKSKNSRVLFMFYEDMKEDIRREVVKLIEFLERKPSAELVDRIIQHTSFQEMKNNPSTNYTMMPEEMMNQKVSPFMRKGIIGDWKNHFPEALRERFDEHYKQQMKDCTVKFRMEL
As to B2, in series [3], the Km stood at 1560 ± 260 µM, the kcat was found to be 0.00849 ± 0.000572 s⁻¹ and the catalytic efficiency (kcat/Km) stood at 5.44 M⁻¹ s⁻¹.

B3: trehalose sulfotransferase (Stf0) (Mycolicibacterium smegmatis MC2 155) (protein)
chain: MSDHPTAYLVLASQRSGSTLLVESLRATGVAGEPQEFFQYLPNTSMSPQPREWFADVEDQSILRLLDPLIEGKPDLAPATIWRDYIQTVGRTPNGVWGGKLMWNQTPLLVQRAKDLPDRSGSGLLSAIRDVVGSDPVLIHIHRPDVVSQAVSFWRAVQTRVWRGRPDPVRDARAEYHAGAIAHVITMLRAQEEGWRAWFTEENVEPIDVDYPYLWRNLTEVVGTVLEALGQDPRLAPKPVLERQADQRSDEWVERYRRDAQRDGLPL
Regarding B3, in series [4], the Km was determined as 820 ± 60 µM, the kcat is 0.00988 ± 0.00025 s⁻¹ and the kcat/Km stood at 12.1 M⁻¹ s⁻¹.
